Measured values from patent publication US10087225B2, “Formulation of MK2 inhibitor peptides” (MOERAE MATRIX, INC., priority 2015, dated 2018).

Key:
Assay in all cases: Kinase Profiling Assay
Type in all cases: biochemical
Details in all cases: for % activity: 100 μM
Ab1(T315I)(h) = Ab1(T315I)(h) (Homo sapiens, UniProt P00519, T315I)
Bmx(h) = molecular target: T1, Bmx(h) (Homo sapiens, UniProt P51813)
T1 sequence (P51813 1-675): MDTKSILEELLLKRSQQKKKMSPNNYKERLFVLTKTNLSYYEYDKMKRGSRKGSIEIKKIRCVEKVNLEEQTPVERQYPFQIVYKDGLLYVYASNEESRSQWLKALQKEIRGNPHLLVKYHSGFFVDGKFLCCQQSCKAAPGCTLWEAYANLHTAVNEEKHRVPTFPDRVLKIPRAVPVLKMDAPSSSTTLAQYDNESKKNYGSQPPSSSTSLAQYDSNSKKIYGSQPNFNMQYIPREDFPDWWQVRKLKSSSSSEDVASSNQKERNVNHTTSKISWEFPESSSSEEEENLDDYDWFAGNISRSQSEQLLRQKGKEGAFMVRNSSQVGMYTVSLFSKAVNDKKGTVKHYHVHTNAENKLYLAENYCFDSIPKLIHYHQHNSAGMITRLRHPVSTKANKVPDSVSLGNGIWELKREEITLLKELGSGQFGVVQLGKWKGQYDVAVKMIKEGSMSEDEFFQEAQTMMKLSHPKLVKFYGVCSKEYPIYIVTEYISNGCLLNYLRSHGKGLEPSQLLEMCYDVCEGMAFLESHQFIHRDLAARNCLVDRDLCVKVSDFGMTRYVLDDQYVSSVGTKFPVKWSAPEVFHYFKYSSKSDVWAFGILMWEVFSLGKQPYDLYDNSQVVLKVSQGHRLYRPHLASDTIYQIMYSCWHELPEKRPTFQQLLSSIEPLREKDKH

CLK3(h) = CLK3(h) (Homo sapiens, UniProt P49761)
Sequence of CLK3(h) (P49761 whole entry): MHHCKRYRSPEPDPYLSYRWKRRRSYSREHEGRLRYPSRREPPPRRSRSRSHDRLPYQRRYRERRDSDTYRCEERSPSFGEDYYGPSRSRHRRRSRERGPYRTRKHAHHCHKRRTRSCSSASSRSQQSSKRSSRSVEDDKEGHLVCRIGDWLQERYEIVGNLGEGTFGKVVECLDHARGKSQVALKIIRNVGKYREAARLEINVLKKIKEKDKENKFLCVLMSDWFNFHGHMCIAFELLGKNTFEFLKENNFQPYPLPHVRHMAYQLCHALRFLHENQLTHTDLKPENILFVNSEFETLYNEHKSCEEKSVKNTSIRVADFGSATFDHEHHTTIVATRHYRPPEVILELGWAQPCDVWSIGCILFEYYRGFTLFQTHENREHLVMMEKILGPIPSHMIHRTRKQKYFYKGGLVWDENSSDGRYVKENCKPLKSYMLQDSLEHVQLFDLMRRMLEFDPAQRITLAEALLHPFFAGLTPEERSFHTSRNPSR

EphA5(h) = EphA5(h) (Homo sapiens, UniProt P54756)
Sequence of EphA5(h) (P54756 25-1037): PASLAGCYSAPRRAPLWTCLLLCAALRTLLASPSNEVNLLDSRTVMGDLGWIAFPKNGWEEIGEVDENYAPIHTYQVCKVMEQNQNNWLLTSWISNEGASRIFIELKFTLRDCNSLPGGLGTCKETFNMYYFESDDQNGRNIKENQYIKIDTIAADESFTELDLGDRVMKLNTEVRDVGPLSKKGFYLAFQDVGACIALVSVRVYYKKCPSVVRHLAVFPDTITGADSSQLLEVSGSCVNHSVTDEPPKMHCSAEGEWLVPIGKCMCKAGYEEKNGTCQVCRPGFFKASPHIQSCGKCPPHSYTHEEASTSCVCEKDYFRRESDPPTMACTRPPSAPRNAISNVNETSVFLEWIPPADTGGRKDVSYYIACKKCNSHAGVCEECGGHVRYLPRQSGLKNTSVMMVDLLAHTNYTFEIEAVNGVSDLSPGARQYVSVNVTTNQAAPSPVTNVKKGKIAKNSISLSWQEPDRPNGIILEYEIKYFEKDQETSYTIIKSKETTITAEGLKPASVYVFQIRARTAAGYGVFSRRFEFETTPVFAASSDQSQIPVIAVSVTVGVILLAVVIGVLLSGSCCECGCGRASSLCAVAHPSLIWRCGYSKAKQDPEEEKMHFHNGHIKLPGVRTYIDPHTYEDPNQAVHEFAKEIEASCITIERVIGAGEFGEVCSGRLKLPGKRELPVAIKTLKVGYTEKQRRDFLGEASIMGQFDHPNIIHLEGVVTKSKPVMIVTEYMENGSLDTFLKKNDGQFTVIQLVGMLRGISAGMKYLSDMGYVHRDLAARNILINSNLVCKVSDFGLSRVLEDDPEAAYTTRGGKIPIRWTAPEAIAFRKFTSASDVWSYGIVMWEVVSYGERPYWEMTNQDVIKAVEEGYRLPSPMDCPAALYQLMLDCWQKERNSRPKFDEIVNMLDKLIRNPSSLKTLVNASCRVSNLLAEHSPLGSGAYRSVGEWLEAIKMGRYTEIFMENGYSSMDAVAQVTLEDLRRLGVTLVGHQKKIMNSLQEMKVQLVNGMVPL

ErbB4(h) = ErbB4(h) (Homo sapiens, UniProt Q15303)
Sequence of ErbB4(h) (Q15303 26-1308): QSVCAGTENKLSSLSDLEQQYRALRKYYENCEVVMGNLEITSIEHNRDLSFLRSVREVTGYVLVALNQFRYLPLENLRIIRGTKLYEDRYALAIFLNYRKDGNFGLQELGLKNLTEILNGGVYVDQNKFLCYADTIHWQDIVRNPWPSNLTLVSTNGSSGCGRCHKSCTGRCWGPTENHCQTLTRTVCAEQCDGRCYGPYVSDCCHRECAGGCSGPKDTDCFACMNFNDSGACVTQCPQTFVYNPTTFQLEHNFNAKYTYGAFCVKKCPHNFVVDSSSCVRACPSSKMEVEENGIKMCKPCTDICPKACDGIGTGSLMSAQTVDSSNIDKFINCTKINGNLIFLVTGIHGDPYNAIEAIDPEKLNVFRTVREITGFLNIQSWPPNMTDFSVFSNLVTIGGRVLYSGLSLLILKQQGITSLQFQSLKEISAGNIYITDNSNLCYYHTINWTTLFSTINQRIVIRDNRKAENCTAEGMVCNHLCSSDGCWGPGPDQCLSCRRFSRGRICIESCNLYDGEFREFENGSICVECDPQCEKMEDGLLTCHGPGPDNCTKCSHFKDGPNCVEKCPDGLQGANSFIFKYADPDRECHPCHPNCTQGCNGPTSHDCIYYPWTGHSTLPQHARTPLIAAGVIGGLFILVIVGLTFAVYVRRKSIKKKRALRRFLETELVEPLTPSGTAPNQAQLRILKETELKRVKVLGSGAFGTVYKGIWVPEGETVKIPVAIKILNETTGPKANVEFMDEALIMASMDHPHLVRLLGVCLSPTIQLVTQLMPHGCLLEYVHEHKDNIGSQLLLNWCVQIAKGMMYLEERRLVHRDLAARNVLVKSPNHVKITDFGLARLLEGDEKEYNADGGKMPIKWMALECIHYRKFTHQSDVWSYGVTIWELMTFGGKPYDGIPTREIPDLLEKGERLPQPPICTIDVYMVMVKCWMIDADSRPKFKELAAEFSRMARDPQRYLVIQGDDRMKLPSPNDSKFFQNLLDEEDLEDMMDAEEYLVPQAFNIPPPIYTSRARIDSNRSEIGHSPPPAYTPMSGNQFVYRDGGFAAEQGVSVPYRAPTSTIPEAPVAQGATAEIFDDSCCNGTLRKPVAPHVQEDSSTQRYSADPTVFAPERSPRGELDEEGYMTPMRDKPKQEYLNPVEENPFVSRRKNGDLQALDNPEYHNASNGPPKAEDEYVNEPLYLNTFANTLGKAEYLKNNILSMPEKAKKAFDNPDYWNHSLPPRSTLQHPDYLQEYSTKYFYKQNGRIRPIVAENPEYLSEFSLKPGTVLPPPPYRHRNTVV

MAPKAP-K2(h) = MAPKAP-K2(h) (Homo sapiens, UniProt P49137)
Sequence of MAPKAP-K2(h) (P49137 whole entry): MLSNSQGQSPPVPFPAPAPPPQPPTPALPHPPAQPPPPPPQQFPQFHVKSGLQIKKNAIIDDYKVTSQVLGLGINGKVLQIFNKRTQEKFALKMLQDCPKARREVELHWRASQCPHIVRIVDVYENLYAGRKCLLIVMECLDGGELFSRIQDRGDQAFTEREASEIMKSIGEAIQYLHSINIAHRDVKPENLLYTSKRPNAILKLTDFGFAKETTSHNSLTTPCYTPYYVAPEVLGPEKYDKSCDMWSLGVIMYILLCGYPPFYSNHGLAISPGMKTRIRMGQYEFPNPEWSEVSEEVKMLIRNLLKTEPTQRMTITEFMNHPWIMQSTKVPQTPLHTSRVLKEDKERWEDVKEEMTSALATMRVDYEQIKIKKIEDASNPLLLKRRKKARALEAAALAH

MELK(h) = MELK(h) (Homo sapiens, UniProt Q14680)
Sequence of MELK(h) (Q14680 whole entry): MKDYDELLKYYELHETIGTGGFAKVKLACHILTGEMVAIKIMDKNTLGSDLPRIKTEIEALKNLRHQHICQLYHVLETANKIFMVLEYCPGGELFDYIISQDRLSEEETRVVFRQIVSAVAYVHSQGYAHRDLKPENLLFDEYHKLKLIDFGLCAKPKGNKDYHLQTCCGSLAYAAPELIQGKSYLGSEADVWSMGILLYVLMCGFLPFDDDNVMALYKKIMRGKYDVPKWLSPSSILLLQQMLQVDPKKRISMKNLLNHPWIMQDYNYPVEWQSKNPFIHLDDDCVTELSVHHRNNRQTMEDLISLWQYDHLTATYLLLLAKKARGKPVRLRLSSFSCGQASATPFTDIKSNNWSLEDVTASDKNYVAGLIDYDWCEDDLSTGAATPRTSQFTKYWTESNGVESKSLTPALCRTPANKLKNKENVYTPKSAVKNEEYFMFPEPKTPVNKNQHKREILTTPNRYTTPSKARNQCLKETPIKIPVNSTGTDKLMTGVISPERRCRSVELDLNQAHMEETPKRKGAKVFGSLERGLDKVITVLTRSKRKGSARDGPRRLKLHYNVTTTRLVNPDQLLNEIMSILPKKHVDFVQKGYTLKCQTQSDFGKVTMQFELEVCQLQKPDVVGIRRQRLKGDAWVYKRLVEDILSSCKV

Met(Y1248C)(h) = Met(Y1248C)(h) (Homo sapiens, UniProt P08581, Y1230C)
Met(Y1248D)(h) = Met(Y1248D)(h) (Homo sapiens, UniProt P08581, Y1230D)
PASK(h) = PASK(h) (Homo sapiens, UniProt Q96RG2)
PTK5(h) = PTK5(h) (Homo sapiens, UniProt P42685)
Sequence of PTK5(h) (P42685 whole entry): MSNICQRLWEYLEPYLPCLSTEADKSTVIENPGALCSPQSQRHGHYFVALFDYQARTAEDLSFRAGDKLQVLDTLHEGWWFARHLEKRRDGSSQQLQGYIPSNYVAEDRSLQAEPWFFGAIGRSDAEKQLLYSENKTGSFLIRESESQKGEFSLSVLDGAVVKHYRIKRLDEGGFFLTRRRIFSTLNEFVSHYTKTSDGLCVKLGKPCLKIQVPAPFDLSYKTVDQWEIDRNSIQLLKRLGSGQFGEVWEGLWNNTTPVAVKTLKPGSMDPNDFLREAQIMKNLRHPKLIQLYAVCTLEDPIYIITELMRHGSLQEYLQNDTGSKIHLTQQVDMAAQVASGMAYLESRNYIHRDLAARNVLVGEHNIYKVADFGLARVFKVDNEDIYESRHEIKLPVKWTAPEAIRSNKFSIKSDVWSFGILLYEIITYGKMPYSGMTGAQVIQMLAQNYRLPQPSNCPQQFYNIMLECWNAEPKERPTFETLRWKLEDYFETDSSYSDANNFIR

Txk(h) = molecular target: T2, Txk(h) (Homo sapiens, UniProt P42681)
T2 sequence (P42681 1-527): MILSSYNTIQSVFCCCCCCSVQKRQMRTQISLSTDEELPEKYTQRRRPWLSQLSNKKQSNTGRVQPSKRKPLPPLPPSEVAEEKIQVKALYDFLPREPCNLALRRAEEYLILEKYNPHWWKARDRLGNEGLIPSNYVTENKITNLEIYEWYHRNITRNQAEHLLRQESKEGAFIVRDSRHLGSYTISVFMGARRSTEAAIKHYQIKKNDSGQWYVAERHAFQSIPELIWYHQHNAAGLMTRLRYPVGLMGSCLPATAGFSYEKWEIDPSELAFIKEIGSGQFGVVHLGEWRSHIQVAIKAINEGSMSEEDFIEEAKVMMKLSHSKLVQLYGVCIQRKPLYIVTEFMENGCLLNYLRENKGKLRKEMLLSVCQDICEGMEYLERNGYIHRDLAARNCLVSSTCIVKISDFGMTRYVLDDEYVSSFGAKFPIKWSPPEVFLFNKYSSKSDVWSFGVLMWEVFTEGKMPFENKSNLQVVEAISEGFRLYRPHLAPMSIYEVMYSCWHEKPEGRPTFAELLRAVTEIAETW

ULK2(h) = molecular target: T3, ULK2(h) (Homo sapiens, UniProt Q8IYT8)
T3 sequence (Q8IYT8 1-1036): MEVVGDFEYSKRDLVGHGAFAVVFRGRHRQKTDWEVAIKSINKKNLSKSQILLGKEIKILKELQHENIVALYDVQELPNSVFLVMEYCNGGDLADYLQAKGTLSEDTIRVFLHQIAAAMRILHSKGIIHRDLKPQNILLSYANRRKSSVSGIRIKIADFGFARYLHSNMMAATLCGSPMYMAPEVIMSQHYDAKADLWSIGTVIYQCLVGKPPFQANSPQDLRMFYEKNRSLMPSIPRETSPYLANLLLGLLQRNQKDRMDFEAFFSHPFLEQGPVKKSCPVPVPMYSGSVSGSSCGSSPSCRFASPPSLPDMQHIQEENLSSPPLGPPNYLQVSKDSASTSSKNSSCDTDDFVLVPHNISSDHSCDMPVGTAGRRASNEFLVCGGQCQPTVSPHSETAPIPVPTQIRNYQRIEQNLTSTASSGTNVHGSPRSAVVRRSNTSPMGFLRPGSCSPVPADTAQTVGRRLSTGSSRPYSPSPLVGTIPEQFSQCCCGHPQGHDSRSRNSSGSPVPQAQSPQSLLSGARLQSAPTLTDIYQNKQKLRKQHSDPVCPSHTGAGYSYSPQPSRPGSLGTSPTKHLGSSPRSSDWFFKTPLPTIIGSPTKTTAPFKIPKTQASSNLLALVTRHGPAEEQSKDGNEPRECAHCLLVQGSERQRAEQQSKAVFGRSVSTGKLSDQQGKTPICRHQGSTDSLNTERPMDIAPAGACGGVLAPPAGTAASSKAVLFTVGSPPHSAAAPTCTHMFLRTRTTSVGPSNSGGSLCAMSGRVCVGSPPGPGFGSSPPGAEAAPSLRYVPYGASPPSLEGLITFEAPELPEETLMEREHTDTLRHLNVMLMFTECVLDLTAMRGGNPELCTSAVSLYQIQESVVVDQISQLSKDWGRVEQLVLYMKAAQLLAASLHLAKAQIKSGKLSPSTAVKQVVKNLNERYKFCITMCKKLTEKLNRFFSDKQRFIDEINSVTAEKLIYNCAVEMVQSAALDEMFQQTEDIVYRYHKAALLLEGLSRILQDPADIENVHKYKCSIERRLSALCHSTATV

Row | Substance | % activity (Ab1(T315I)(h)) [%] | % activity (Bmx(h)) [%] | % activity (CLK3(h)) [%] | % activity (EphA5(h)) [%] | % activity (ErbB4(h)) [%] | % activity (MAPKAP-K2(h)) [%] | % activity (MELK(h)) [%] | % activity (Met(Y1248C)(h)) [%] | % activity (Met(Y1248D)(h)) [%] | % activity (PASK(h)) [%] | % activity (PTK5(h)) [%] | % activity (Txk(h)) [%] | % activity (ULK2(h)) [%] | other results
1 | H-YARAAARQARAKALARQLGVAA-OH [MMI-0100] |  |  |  |  |  |  |  |  |  |  |  |  |  | activity at 100 µM (Ab1(T315I)(h)): 98%; activity at 100 µM (Bmx(h)): 62%; activity at 100 µM (CLK3(h)): 108%; activity at 100 µM (EphA5(h)): 110%; activity at 100 µM (ErbB4(h)): 73%; activity at 100 µM (MAPKAP-K2(h)): 19%; activity at 100 µM (MELK(h)): 74%; activity at 100 µM (Met(Y1248C)(h)): 77%; activity at 100 µM (Met(Y1248D)(h)): 87%; activity at 100 µM (PASK(h)): 81%; activity at 100 µM (PTK5(h)): 135%; activity at 100 µM (Txk(h)): 87%; activity at 100 µM (ULK2(h)): 123%
2 | YARAAARQARAKALNRQLGVA (Mammalian) [MMI-0200] | 108 | 76 | 76 | 123 | 82 | 35 | 59 | 141 | 118 | 60 | 108 | 98 | 132 | 
3 | HRRIKAWLKKIKALARQLGVAA (Mammalian) [MMI-0500] | 16 | 45 | 76 | 42 | 2 | 9 | 0 | 73 | 218 | 9 | 96 | 10 | 124 | 
